From patent publication US20120076796A1 (Ablynx, published 2012)
One block for each binder: values may come before it.

How the values were obtained:
[1] = molecular target: T1, Recombinant human Angiopoietin-2 (R&D Systems Cat No 623-AN/CF) (human, UniProt O15123 19-496, limits assumed); assay: listed in the alignment of Ang2 binding Nanobodies; assay not told for this clone
T1 construct: Bought reagent; also called Ang2; human Ang2
T1 sequence (looked up): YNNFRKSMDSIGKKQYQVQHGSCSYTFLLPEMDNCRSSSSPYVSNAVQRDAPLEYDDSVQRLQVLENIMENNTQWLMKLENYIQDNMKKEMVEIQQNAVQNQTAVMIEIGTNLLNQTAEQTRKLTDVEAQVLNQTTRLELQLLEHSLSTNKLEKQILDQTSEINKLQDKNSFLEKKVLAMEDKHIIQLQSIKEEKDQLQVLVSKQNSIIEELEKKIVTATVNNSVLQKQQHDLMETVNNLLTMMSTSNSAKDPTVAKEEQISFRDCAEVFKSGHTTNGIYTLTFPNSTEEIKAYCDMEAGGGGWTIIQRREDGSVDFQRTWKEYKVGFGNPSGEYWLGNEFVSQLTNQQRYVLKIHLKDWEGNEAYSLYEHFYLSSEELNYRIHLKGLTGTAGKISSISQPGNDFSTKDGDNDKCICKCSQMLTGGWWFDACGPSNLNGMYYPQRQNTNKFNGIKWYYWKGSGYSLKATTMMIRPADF

[2] = molecular target: T2, Recombinant human Angiopoietin-1 (R&D Systems Cat No 923-AN/CF) (human, UniProt Q15389 20-498, limits assumed); assay: phage ELISA: 10 ul monoclonal phage supernatant in 100 ul on 0.2 ug/ml coated Ang1, anti-M13-HRP, OD 450 nm
T2 construct: Bought reagent; also called Ang1; human Ang1
T2 sequence (looked up): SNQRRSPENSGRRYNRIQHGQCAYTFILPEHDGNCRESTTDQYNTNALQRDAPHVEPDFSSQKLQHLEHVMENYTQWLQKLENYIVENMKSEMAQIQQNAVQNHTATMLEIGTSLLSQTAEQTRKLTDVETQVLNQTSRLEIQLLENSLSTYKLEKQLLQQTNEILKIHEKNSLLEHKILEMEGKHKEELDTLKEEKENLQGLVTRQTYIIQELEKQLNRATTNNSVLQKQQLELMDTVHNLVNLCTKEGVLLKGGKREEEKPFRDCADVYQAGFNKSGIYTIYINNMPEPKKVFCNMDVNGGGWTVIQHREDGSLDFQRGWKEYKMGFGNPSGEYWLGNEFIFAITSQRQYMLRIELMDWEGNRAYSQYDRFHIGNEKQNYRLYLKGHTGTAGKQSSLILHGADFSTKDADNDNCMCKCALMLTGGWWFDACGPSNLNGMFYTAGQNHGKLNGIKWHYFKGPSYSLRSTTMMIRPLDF
Method: In order to determine binding specificity to Ang1, the clones are tested in an ELISA binding assay setup, using the monoclonal phage pools. Phage binding to Ang1 (R&D Systems Cat No 923-AN/CF, Lot No FHWO73091) is tested. Shortly, 0.2 ug/ml Ang1 is immobilized on Maxisorp ELISA plates (Nunc) and free binding sites are blocked using 4% Marvel skimmed milk in PBS. Next, 10 ul of supernatant from the monoclonal phage inductions of the different clones in 100 ul 2% Marvel PBS are allowed to bind to the immobilized antigen. […] Binding specificity is determined based on OD values compared to controls having received an irrelevant phage or no phage.

[3] = molecular target: T3, recombinant human Tie2/Fc Chimera (R&D Systems Cat No 313-TI, Lot No BKC06) (human, UniProt Q02763 23-745); assay: phage ELISA: 10 ul monoclonal phage supernatant in 100 ul on 0.2 ug/ml coated Tie2/Fc, anti-M13-HRP, OD 450 nm
T3 construct: Bought reagent; also called receptor; not shown: Fc portion of the bought chimera
T3 sequence (Q02763 23-745, change not shown): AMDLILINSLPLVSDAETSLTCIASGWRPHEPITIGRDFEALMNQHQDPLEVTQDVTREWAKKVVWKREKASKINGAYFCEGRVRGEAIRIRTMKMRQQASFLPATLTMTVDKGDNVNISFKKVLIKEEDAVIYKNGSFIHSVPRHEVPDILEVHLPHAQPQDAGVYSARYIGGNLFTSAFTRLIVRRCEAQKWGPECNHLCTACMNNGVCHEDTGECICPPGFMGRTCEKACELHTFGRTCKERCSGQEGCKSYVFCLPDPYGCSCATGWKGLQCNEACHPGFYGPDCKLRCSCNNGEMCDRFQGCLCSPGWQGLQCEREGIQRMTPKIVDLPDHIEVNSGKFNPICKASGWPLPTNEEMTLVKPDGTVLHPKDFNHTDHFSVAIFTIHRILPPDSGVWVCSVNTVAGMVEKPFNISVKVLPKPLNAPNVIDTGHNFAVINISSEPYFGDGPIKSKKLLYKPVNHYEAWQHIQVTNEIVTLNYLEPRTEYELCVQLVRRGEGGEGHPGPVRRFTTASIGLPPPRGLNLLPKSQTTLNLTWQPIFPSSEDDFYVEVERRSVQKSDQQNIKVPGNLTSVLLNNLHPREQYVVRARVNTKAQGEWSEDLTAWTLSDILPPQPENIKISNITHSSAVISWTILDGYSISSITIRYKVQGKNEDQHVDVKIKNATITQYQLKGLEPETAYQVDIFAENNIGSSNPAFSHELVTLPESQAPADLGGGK
Method: In order to determine binding specificity to Tie2, the clones are tested in an ELISA binding assay setup, using the monoclonal phage pools. Phage binding to Tie2/Fc Chimera (R&D Systems Cat No 313-TI, Lot No BKC06) is tested. Shortly, 0.2 ug/ml receptor is immobilized on Maxisorp ELISA plates (Nunc) and free binding sites are blocked using 4% Marvel skimmed milk in PBS. Next, 10 ul of supernatant from the monoclonal phage inductions of the different clones in 100 ul 2% Marvel PBS are allowed to bind to the immobilized antigen. […] Binding specificity is determined based on OD values compared to controls having received no phage and to controls where in a similar ELISA binding assay the same monoclonal phage are tested for binding to 0.2 ug/ml of immobilized human IgG and 0.2 ug/ml of rh B7.2/Fc.

[4] = molecular target: T3, recombinant human Tie2/Fc Chimera (R&D …); assay: competition ELISA: 0.2 ug/ml Tie2/Fc pre-incubated with a dilution series of purified Nanobody, then on coated Ang1 (0.75 ug/ml); bound Tie2/Fc detected with anti-human IgG-HRP; blocked ligand: Ang1
Method: In order to determine the receptor blocking efficiency of clones tested positive for Ang1 competition, a dilution series of purified Nanobodies are tested in the ELISA-based ligand competition setup. In short, 0.75 ug/ml human. Ang1 (R&D Systems Cat No 923-AN/CF Lot No FHWO73091) is coated in 96 well Maxisorp microliter plates (Nunc) and blocked with 4% Marvel skimmed milk in PBS. In parallel, 0.2 ug/ml Tie2/Fc is incubated with a dilution series of purified Nanobodies. After 1 hour, the receptor-Nanobody pre-mixes are incubated 1 hour with the coated ligand. Bound Tie2/Fc is detected using HRP-conjugated goat anti-human IgG (Jackson Immunoresearch, Cat #109-035-098). Blocking activity is determined as loss of OD signal, as compared to wells where no P.E., or irrelevant P.E., has been added.

[5] = molecular target: T4, biotinylated rh Ang2 (R&D Systems Cat No BT623, Lot No BNR174091) (human, UniProt O15123 19-496, limits assumed, biotinylated (sites not given)); assay: competition ELISA: 0.05 ug/ml biotinylated Ang2 pre-incubated with a dilution series of purified Nanobody, then on coated Tie2/Fc (4 ug/ml); bound Ang2 detected with extravidin-HRP; blocked partner: Tie2/Fc
T4 construct: Bought reagent; also called biotinylated Ang2
T4 sequence (looked up): T1 sequence (looked up)
Method: In order to determine the receptor blocking efficiency of clones tested positive for Ang2 blocking, a dilution series of purified Nanobodies are tested in the ELISA-based ligand competition setup. In short, 4 ug/ml human Tie2/Fc Chimera (R&D Systems Cat No 313-TI, Lot No BKC06)) is coated in 96 well Maxisorp microtiter plates (Nunc) and blocked with 4% Marvel skimmed milk in PBS. In parallel, 0.05 ug/ml biotinylated rh Ang2 (R&D Systems Cat No BT623, Lot No BNR174091) is incubated with a dilution series of purified Nanobodies. After 1 hour, the biotinylated Ang2-Nanobody pre-mixes are incubated 1 hour with the coated receptor. Bound biotinylated Ang2 is detected using HRP-conjugated extravidin (SIGMA E2886-1ML, 126K4801). Blocking activity is determined as loss of OD signal, as compared to wells where no P.E., or irrelevant P.E. has been added.

B1: 166-H5 (VHH)
VHH: EVQLVESGGGLVQAGGSLSLACVVSGRFSRINSMAWSRQVPGNARELVASVTSGGYTNYVDSVKGRFTISRDNAKNAIYLQMNSLKSEDTAVYYCNARVVVRTAHGFEDNYWGQGTQVTVSS
binding result [1]: binds

B5: 162-E1 (VHH)
VHH: EVQLVESGGGLVQAGGSLRLSCAASGSIFSINAMGWYQQAPGKQRELVAFITSVGTTNYADSVKGRFIISRDNAKNTVYLQMNSLKPEDTAVYYCAADLHYSGPNYWGQGTQVTVSS
notes: Nanobody; Footnote: q in FR2 of 162-E1 from an Amber stop codon
IC50 (read off the curve) [4]: ~3 nM

B7: 184-B6 (VHH)
VHH: EVQLVESGGGLVQPGGSLRLSCAASGFTFSNYAMTWVRQAPGKGLEWVSDISWDGDITTYAASVKGRFTISRDNAKKTLYLQMNSLKPEDSAVYYCNTYGYDSGRYYSYWGQGTQVTVSS
notes: Nanobody
binding result [2]: binds

B8: 162-E9 (VHH)
VHH: EVQLVESGGGLVQPGGSLRLSCAASGFTLDDYAIGWFRQAPGKEREAVSCISSVDGSTHYADSVKGRFTISRDNAKDTVYLQMNSLKPEDTAAYYCAVQGYSGGYYYTCEDSADFGFWGQGTQVTVSS
notes: Nanobody
IC50 (read off the curve) [4]: ~3 nM

More lines, now with the values ahead:

binding result [2]: binds
B2: 185-H5 (VHH)
VHH: EVQLVESGGGLVQPGGSLRLSCAASGFTLDYYAIGWFRQAPGKEREGVSYISSSDGRTYYADSVKGRFTISRDNAKNTVYLQMNSLKPEDTAVYYCATDLSGRGDVSEYEYDYWGQGTQVTVSS
notes: Nanobody

binding result [3]: binds
B3: 162-F3 (VHH)
VHH: EVQLVESGGGLVQAGDSLRLSCTTSGRTFSDDTMGWFRQAPRKEREFVAAILWDSIKTYYADSVKGRFTISRDNAKNTVYLQMDSLKPEDTAVYYCAATPTAYGTDWYRNNYHYWGQGTQVTVSS
notes: Nanobody

binding result [2]: binds
B4: 173-H9 (VHH)
VHH: EVQLVESGGGLVQPGGSLRLSCAASGFTLSGNWMYWLRQAPGKGLEWISTITPRGLTAYADSVKGRFTISRDIAENTLYLQMNSLKSGDTAVYYCARDKTGERRGQGTQVTVSS
notes: Nanobody

IC50 (read off the curve) [5]: ~4 nM
B6: 166-H4 (VHH)
VHH: EVQLVESGGDLVQAGGSLRLSCAASGFTFGDFTIGWFRQAPGKEREGVSCINTGDGSTNYAESVKGRFTISSDNAKNTVYLQMNSLKPEDTAVYYCALDQAPMWSSWSAPYEYDYWGQGTQVTVSS
notes: Nanobody
